In PMC6512903:

Assays:
Assay in all cases: SPR
FcRn (human) = FcRn (human) (UniProt P55899)
FcγRIIb/c (human) = FcγRIIb/c (human) (UniProt P31994)
FcγRIIIa (F) (human) = FcγRIIIa (F) (human) (UniProt P08637)
FcγRIIIa (V) (human) = FcγRIIIa (V) (human) (UniProt P08637)
FcγRIa (human) = FcγRIa (human) (UniProt P12314)
FcγRIIIb (human) = FcγRIIIb (human) (UniProt O75015)
Chain of UniProt O75015 (O75015 17-200): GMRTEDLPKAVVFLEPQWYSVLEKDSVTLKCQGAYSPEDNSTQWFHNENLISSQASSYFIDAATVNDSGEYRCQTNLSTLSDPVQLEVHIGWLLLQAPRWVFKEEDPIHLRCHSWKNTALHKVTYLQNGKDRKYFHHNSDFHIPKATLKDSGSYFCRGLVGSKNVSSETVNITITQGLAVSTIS

Chain of UniProt P55899 (P55899 24-365, chain 1 of 2): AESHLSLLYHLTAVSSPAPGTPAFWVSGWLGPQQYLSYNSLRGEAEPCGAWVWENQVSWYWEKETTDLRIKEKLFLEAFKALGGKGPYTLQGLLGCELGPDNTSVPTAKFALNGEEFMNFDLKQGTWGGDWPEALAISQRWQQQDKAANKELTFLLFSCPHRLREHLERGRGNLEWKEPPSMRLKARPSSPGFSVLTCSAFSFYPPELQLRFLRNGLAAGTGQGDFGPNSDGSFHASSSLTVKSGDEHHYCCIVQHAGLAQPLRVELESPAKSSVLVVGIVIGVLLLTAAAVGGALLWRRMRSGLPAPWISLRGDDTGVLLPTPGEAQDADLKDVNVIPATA
Chain of UniProt P55899 (P61769 21-119, chain 2 of 2, further chain): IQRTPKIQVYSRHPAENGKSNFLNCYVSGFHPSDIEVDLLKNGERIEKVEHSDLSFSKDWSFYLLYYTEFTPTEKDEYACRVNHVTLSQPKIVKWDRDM
Chain of UniProt P31994 (P31994 43-310): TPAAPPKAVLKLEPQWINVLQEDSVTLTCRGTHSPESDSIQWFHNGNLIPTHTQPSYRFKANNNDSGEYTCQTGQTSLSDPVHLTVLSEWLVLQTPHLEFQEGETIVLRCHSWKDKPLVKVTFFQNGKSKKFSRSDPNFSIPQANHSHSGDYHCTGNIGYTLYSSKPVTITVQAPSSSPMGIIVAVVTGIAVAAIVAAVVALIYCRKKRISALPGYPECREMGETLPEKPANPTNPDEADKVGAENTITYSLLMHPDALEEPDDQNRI
Chain of UniProt P12314 (P12314 16-374): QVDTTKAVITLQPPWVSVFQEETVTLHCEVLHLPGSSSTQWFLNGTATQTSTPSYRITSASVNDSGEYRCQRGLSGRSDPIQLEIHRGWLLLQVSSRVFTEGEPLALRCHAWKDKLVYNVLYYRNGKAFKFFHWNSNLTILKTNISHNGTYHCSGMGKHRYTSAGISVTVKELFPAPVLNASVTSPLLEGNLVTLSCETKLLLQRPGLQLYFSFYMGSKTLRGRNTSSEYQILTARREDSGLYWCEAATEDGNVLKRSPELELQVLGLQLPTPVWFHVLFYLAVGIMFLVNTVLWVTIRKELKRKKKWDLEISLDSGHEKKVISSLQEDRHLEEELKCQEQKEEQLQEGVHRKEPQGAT

CN-rituximab (MabThera, sourced in China but manufactured in Europe) (antibody)
relative binding activity (KD ratio to a reference), mean of batches (FcRn (human)): 131% | relative binding activity (KD ratio to a reference), mean of batches (FcγRIIb/c (human)): 99%

HLX01 (antibody)
relative binding activity (KD ratio to a reference), mean of batches (FcRn (human)): 113% | relative binding activity (KD ratio to a reference), mean of batches (FcγRIIIa (F) (human)): 98% | relative binding activity (KD ratio to a reference), mean of batches (FcγRIIIa (V) (human)): 95% | relative binding activity (KD ratio to a reference), mean of batches (FcγRIIb/c (human)): 90% | relative binding activity (KD ratio to a reference), mean of batches (FcγRIa (human)): 103%

EU-rituximab (MabThera, sourced and manufactured in Europe) (antibody)
relative binding activity (KD ratio to a reference), mean of batches (FcRn (human)): 121% | relative binding activity (KD ratio to a reference), mean of batches (FcγRIIIb (human)): 90% | relative binding activity (KD ratio to a reference), mean of batches (FcγRIa (human)): 118%
